# B1: DUX4-s: short splice form of DUX4 (SEQ ID NO:112), keeps the double-homeobox domains, lacks the C-terminal activation domain (protein, listed as Homo sapiens)
# chain: MALPTPSDSTLPAEARGRGRRRRLVWTPSQSEALRACFERNPYPGIATRERLAQAIGIPEPRVQIWFQNERSRQLRQHRRESRPWPGRRGPPEGRRKRTAVTGSQTALLLRAFEKDRFPGIAAREELARETGLPESRIQIWFQNRRARHPGQGGRAPAQV
# Test system: control human primary myoblasts
# Experiment: Expression microarray of primary myoblasts transduced with lentivirus carrying DUX4-fl, DUX4-s or GFP
# Protocol: Primary human myoblasts were collected and cultured as previously described (Snider et al., 2010). Primary myoblasts were maintained at or below 70% confluency for proliferation. For differentiation, cells were allowed to reach 95-100% confluency in growth medium. Once confluency was reached, the cells were changed to differentiation medium (F10 media supplemented with 1% horse serum, 10 μg/mL insulin, and 10 μg/mL transferrin, penicillin/streptomycin) and maintained for 4 days. Human RD cells were grown in DMEM in 10% bovine calf serum (Hyclone) and penicillin/streptomycin. The primary myoblasts were transduced with lentivirus carrying DUX-fl, DUX4- or GFP (MOI=15).
# Expression microarrays were performed on the transduced cells at 24 hours after transduction as follows. […] Samples were analyzed by Illumina Human Whole Genome microarrays. Probe intensities were corrected, normalized, and summarized by the Lumi package of Bioconductor (Du et al., 2008). Differentially expressed genes were identified by the LIMMA package of Bioconductor (Wettenhall and Smyth, 2004). Gene set enrichment analysis (GSEA) was performed using the Bioconductor GOstats package (Falcon and Gentleman, 2007).
molecule,measurement,setting,value
B1,IFITM3 expression fc,"Refseq NM_021034.2, cultured human skeletal muscle",−0.1274
same,NEFH expression fc,Refseq NM_021076.2,0.09952
same,fc of SLC8A1 (expression array),Refseq NM_021097.2,1.046
same,PSAT1 fc,Refseq NM_021154.3,0.7365
same,RAB40C fc,Refseq NM_021168.2,−0.07138
same,fc of SLC30A1 (expression array),Refseq NM_021194.2,1.236
same,CTDSP1 fc,Refseq NM_021198.1,0.04155
same,ARHGAP22 fc,Refseq NM_021226.2,0.07773
same,fc of NTN4 (expression array),Refseq NM_021229.3,0.03724
same,PELI2 expression fc,Refseq NM_021255.2,−0.3732
same,PLEKHA2 fc,Refseq NM_021623.1,0.062
same,AVPI1 expression fc,Refseq NM_021732.1,0.1884
same,fc of FAM3A (expression array),Refseq NM_021806.1,−0.1833
same,APOBEC3G expression fc,"Refseq NM_021822.1, cultured human skeletal muscle",1.408
same,fc of C14orf93 (expression array),Refseq NM_021944.1,−0.1073
same,HSPA2 expression fc,Refseq NM_021979.3,−0.2546
same,CXCL16 fc,Refseq NM_022059.1,1.184
same,NOD2 fc,Refseq NM_022162.1,0.4347
same,IFIH1 expression fc,"Refseq NM_022168.2, cultured human skeletal muscle",1.659
same,HS1BP3 fc,Refseq NM_022460.3,0.05143
same,C14orf173 fc,Refseq NM_022489.2,−0.2714
same,FEZ1 fc,Refseq NM_022549.2,0.19
same,HIPK2 fc,Refseq NM_022740.2,0.3559
same,fc of MOSC1 (expression array),Refseq NM_022746.2,−0.1084
same,PARP12 expression fc,"Refseq NM_022750.2, cultured human skeletal muscle",0.7767
same,CRTC3 fc,Refseq NM_022769.3,−0.1184
same,FAM129B fc,Refseq NM_022833.2,0.4382
same,IFI6 expression fc,"Refseq NM_022872.2, cultured human skeletal muscle",−0.03611
same,FGFR3 expression fc,Refseq NM_022965.1,0.04147
same,PRAMEF1 expression fc,Refseq NM_023013.1,0.0691
same,PRAMEF2 expression fc,Refseq NM_023014.1,−0.04937
same,C8orf33 expression fc,Refseq NM_023080.1,−0.06075
same,GRAMD3 fc,Refseq NM_023927.1,0.3772
same,NEUROG2 expression fc,Refseq NM_024019.2,−0.004473
same,NUP37 fc,Refseq NM_024057.2,−0.1339
same,PRRG4 expression fc,Refseq NM_024081.4,0.2096
same,TRIM48 expression fc,Refseq NM_024114.2,−0.07954
same,DHX58 expression fc,"Refseq NM_024119.2, cultured human skeletal muscle",0.6965
same,PRKAG2 fc,Refseq NM_024429.1,0.7547
same,fc of FAM65A (expression array),Refseq NM_024519.2,−0.1263
same,fc of ZC3HAV1 (expression array),Refseq NM_024625.3,1.471
same,YRDC expression fc,Refseq NM_024640.3,0.000579
same,NPEPL1 fc,Refseq NM_024663.3,−0.2631
same,SNIP1 expression fc,Refseq NM_024700.2,−0.174
same,fc of FAM57A (expression array),Refseq NM_024792.1,−0.003135
same,C13orf34 expression fc,Refseq NM_024808.2,−0.002127
same,fc of NUDT18 (expression array),Refseq NM_024815.3,0.1692
same,fc of ZNF672 (expression array),Refseq NM_024836.1,−0.1481
same,C14orf159 expression fc,"Refseq NM_024952.5, cultured human skeletal muscle",0.5194
same,NRSN2 fc,Refseq NM_024958.1,0.06807
same,SLC24A6 fc,Refseq NM_024959.2,0.0001018
same,CSRNP3 expression fc,Refseq NM_024969.2,−0.07941
same,fc of ULBP1 (expression array),Refseq NM_025218.2,0.6193
same,C6orf148 expression fc,Refseq NM_030568.2,−0.1046
same,KLHL15 expression fc,Refseq NM_030624.1,0.7742
same,fc of ZBP1 (expression array),Refseq NM_030776.1,1.187
same,SLC2A10 fc,Refseq NM_030777.3,−0.3197
same,SYNC1 fc,Refseq NM_030786.1,−0.2508
same,PDRG1 expression fc,Refseq NM_030815.2,0.0622
same,UNC93B1 expression fc,"Refseq NM_030930.2, cultured human skeletal muscle",0.9411
same,PPP1R14C expression fc,Refseq NM_030949.2,−0.01369
same,TRIM56 fc,Refseq NM_030961.1,0.3086
same,fc of RNF146 (expression array),Refseq NM_030963.2,0.1463
same,ADPGK expression fc,Refseq NM_031284.3,0.09196
same,C11orf68 fc,Refseq NM_031450.2,0.3616
same,FAM107B expression fc,Refseq NM_031453.2,−0.1841
same,PARP9 expression fc,"Refseq NM_031458.1, cultured human skeletal muscle",0.4426
same,IFI27L2 fc,Refseq NM_032036.2,−0.02949
same,SFRS2B expression fc,Refseq NM_032102.2,−0.3335
same,fc of ATRIP (expression array),Refseq NM_032166.2,0.002138
same,CEP78 expression fc,Refseq NM_032171.1,−0.1396
same,SON expression fc,Refseq NM_032195.1,−0.2838
same,LARP1B expression fc,Refseq NM_032239.2,−0.2602
same,MED10 expression fc,Refseq NM_032286.2,0.5994
same,C1orf57 fc,Refseq NM_032324.1,0.3544
same,ELOF1 expression fc,Refseq NM_032377.3,−0.3008
same,fc of C15orf48 (expression array),Refseq NM_032413.2,1.653
same,PKIB expression fc,Refseq NM_032471.4,−0.1719
same,KBTBD8 expression fc,Refseq NM_032505.1,0.01077
same,TMEM185A expression fc,Refseq NM_032508.1,0.2327
same,PARD6G fc,Refseq NM_032510.3,−0.01049
same,fc of EBPL (expression array),Refseq NM_032565.2,−0.0901
same,fc of ACCS (expression array),Refseq NM_032592.3,−0.1557
same,RBBP6 expression fc,Refseq NM_032626.5,−0.1339
same,SPRYD5 expression fc,Refseq NM_032681.1,−0.07702
same,fc of SPPL2A (expression array),Refseq NM_032802.3,1.124
same,ATOH8 expression fc,"Refseq NM_032827.4, cultured human skeletal muscle",−0.2886
same,CORO6 fc,Refseq NM_032854.2,−0.3004
same,fc of TIGD5 (expression array),Refseq NM_032862.2,−0.2163
same,CASP6 expression fc,Refseq NM_032992.2,0.2336
same,TRIM5 fc,Refseq NM_033034.1,0.5003
same,EPSTI1 expression fc,"Refseq NM_033255.2, cultured human skeletal muscle",0.6618
same,TP53INP1 fc,Refseq NM_033285.2,−0.5734
same,CASP1 fc,Refseq NM_033294.2,2.171
same,PRIC285 expression fc,"Refseq NM_033405.2, cultured human skeletal muscle",0.8634
same,ZNF622 expression fc,Refseq NM_033414.2,0.01403
same,PANX2 expression fc,Refseq NM_052839.2,0.2001
same,fc of C20orf72 (expression array),Refseq NM_052865.2,−0.05254
same,fc of GBP5 (expression array),Refseq NM_052942.2,1.314
same,fc of ALPK2 (expression array),Refseq NM_052947.3,−1.08
same,fc of ANTXR1 (expression array),Refseq NM_053034.1,0.3595
same,AP1S1 fc,Refseq NM_057089.2,−0.1404
same,CCNE1 expression fc,Refseq NM_057182.1,−0.1277
same,FBXO32 fc,Refseq NM_058229.2,0.7666
same,CCNT2 expression fc,Refseq NM_058241.1,−0.3221
same,SLC44A1 fc,Refseq NM_080546.3,0.7801
same,fc of C2orf28 (expression array),Refseq NM_080592.2,−0.07859
same,DYNLL2 expression fc,Refseq NM_080677.1,0.6521
same,HOM-TES-103 fc,Refseq NM_080731.1,−0.3166
same,ZNF280A expression fc,Refseq NM_080740.3,0.05889
same,C20orf127 expression fc,"Refseq NM_080757.1, cultured human skeletal muscle",0.4401
same,fc of PTPRA (expression array),Refseq NM_080841.2,0.04113
same,ASB5 fc,Refseq NM_080874.2,−0.4567
same,APBB3 expression fc,"Refseq NM_133172.2, cultured human skeletal muscle",0.03992
same,fc of DIS3L (expression array),Refseq NM_133375.2,−0.2728
same,C6orf117 expression fc,Refseq NM_138409.1,−0.06998
same,fc of SDSL (expression array),Refseq NM_138432.2,−0.09243
same,TRIM43 expression fc,Refseq NM_138800.1,0.02385
same,CMBL expression fc,"Refseq NM_138809.3, cultured human skeletal muscle",0.06858
same,fc of FGD4 (expression array),Refseq NM_139241.1,1.214
same,ANGPTL4 fc,Refseq NM_139314.1,1.267
same,MBD3L2 expression fc,Refseq NM_144614.2,0.02684
same,JSRP1 fc,Refseq NM_144616.2,−0.4661
same,fc of PPM1M (expression array),Refseq NM_144641.1,−0.2381
same,fc of C1orf58 (expression array),Refseq NM_144695.2,1.054
same,FXYD5 fc,Refseq NM_144779.1,0.09461
same,Cllorf82 expression fc,Refseq NM_145018.2,−0.2738
same,CDC42EP5 fc,Refseq NM_145057.2,0.1387
same,SPATA18 expression fc,"Refseq NM_145263.2, cultured human skeletal muscle",−0.214
same,MOBKL2C fc,Refseq NM_145279.4,0.1274
same,ZNF296 expression fc,Refseq NM_145288.1,0.1758
same,fc of MGST1 (expression array),Refseq NM_145792.1,0.2271
same,OSBPL7 fc,Refseq NM_145798.2,−0.3669
same,TP53I3 expression fc,"Refseq NM_147184.1, cultured human skeletal muscle",0.192
same,fc of GJD3 (expression array),Refseq NM_152219.3,0.8646
same,ACPL2 fc,Refseq NM_152282.3,0.1468
same,fc of C1orf131 (expression array),Refseq NM_152379.2,−0.08789
same,fc of PPM1K (expression array),Refseq NM_152542.2,1.44
same,C12orf50 expression fc,Refseq NM_152589.1,−0.02137

# — patent US20140242093A1, “METHODS AND COMPOSITIONS FOR MODULATING THE INNATE IMMUNE RESPONSE AND/OR MYOGENESIS IN A MAMMALIAN SUBJECT” (FRED HUTCHINSON CANCER RESEARCH CENTER, priority 2011, published 2014)
